Strand notation (5' to 3'): a small letter for the sugar, then the base; units joined by * are phosphorothioate-linked, units joined directly phosphodiester-linked; [ ] holds rarer units or linkages, { } end groups; capitals alone tell only the bases. m = 2'-O-methyl; r = 2'-OH (RNA)
B1: G000509: TTR Cyno specific sgRNA modified sequence, SEQ ID NO: 121; guide sequence of CR005369 (nucleic acid)
guide: mA*mA*mA*rGrUrUrCrUrArGrArUrGrCrCrGrUrCrCrGrGrUrUrUrUrArGrAmGmCmUmAmGmAmAmAmUmAmGmCrArArGrUrUrArArArArUrArArGrGrCrUrArGrUrCrCrGrUrUrArUrCrAmAmCmUmUmGmAmAmAmAmAmGmUmGmGmCmAmCmCmGmAmGmUmCmGmGmUmGmCmU*mU*mU*mU
B2: G000510: TTR Cyno specific sgRNA modified sequence, SEQ ID NO: 122; guide sequence of CR005370 (nucleic acid)
guide: mA*mC*mU*rUrGrUrCrUrUrCrUrCrUrArUrArCrCrCrArGrUrUrUrUrArGrAmGmCmUmAmGmAmAmAmUmAmGmCrArArGrUrUrArArArArUrArArGrGrCrUrArGrUrCrCrGrUrUrArUrCrAmAmCmUmUmGmAmAmAmAmAmGmUmGmGmCmAmCmCmGmAmGmUmCmGmGmUmGmCmU*mU*mU*mU
B3: G000505: TTR Cyno specific sgRNA modified sequence, SEQ ID NO: 117; guide sequence of CR005365 (nucleic acid)
guide: mC*mA*mU*rUrGrArCrArGrCrArGrGrArCrUrGrCrCrUrGrUrUrUrUrArGrAmGmCmUmAmGmAmAmAmUmAmGmCrArArGrUrUrArArArArUrArArGrGrCrUrArGrUrCrCrGrUrUrArUrCrAmAmCmUmUmGmAmAmAmAmAmGmUmGmGmCmAmCmCmGmAmGmUmCmGmGmUmGmCmU*mU*mU*mU
B4: G000506: TTR Cyno specific sgRNA modified sequence, SEQ ID NO: 118; guide sequence of CR005366 (nucleic acid)
guide: mA*mU*mA*rCrCrArGrUrCrCrArGrCrGrArGrGrCrArGrGrUrUrUrUrArGrAmGmCmUmAmGmAmAmAmUmAmGmCrArArGrUrUrArArArArUrArArGrGrCrUrArGrUrCrCrGrUrUrArUrCrAmAmCmUmUmGmAmAmAmAmAmGmUmGmGmCmAmCmCmGmAmGmUmCmGmGmUmGmCmU*mU*mU*mU
B5: G000571: TTR sgRNA modified sequence, Human, SEQ ID NO: 112; guide sequence of CR005301 (nucleic acid)
guide: mG*mU*mC*rArCrArGrArArArCrArCrUrCrArCrCrGrUrGrUrUrUrUrArGrAmGmCmUmAmGmAmAmAmUmAmGmCrArArGrUrUrArArArArUrArArGrGrCrUrArGrUrCrCrGrUrUrArUrCrAmAmCmUmUmGmAmAmAmAmAmGmUmGmGmCmAmCmCmGmAmGmUmCmGmGmUmGmCmU*mU*mU*mU

How the values were obtained:
TTR [1] = test: TTR editing in primary cyno hepatocytes treated with LNP formulated Spy Cas9 mRNA (SEQ ID NO: 2) and sgRNAs, 12.5 ng mRNA; format: cell-based, cynomolgus monkey; settings: LNP formulated Spy Cas9 mRNA (SEQ ID NO: 2) and cyno matched sgRNA, lysed 72 hours post treatment
Protocol: (§1) Primary liver hepatocytes. Primary human liver hepatocytes (PHH) and primary cynomolgus liver hepatocytes (PCH) (Gibco) were cultured per the manufacturer's protocol (Invitrogen, protocol 11.28.2012). In brief, the cells were thawed and resuspended in hepatocyte thawing medium with supplements (Gibco, Cat. CM7000) followed by centrifugation at 100 g for 10 minutes for human and 80 g for 4 minutes for cyno. The supernatant was discarded and the pelleted cells resuspended in hepatocyte plating medium plus supplement pack (Invitrogen, Cat. A1217601 and CM3000). Cells were counted and plated on Bio-coat collagen I coated 96-well plates (ThermoFisher, Cat. 877272) at a density of 33,000 cells/well for human or 60,000 cells/well for cyno (or 65,000 cells/well when assaying effects on TTR protein, described further below). Plated cells were allowed to settle and adhere for 6 or 24 hours in a tissue culture incubator at 37° C. and 5% CO2 atmosphere. After incubation cells were checked for monolayer formation and media was replaced with hepatocyte culture medium with serum-free supplement pack (Invitrogen, Cat. A1217601 and CM4000).
In general, the lipid nanoparticle components were dissolved in 100% ethanol with the lipid component of various molar ratios. The RNA cargos were dissolved in 25 mM citrate, 100 mM NaCl, pH 5.0, resulting in a concentration of RNA cargo of approximately 0.45 mg/mL. The LNPs were formulated with a lipid amine to RNA phosphate (N:P) molar ratio of about 4.5 or about 6, with the ratio of mRNA to gRNA at 1:1 by weight.
The LNPs were formed by microfluidic mixing of the lipid and RNA solutions using a Precision Nanosystems NanoAssemblr™ Benchtop Instrument, according to the manufacturer's protocol. A 2:1 ratio of aqueous to organic solvent was maintained during mixing using differential flow rates. […]
Additional PCR was performed per the manufacturer's protocols (Illumina) to add chemistry for sequencing. […] The reads were aligned to a reference genome (e.g., the human reference genome (hg38), the cynomologus reference genome (mf5), the rat reference genome (rn6), or the mouse reference genome (mm10)) after eliminating those having low quality scores. The resulting files containing the reads were mapped to the reference genome (BAM files), where reads that overlapped the target region of interest were selected and the number of wild type reads versus the number of reads which contain an insertion, substitution, or deletion was calculated.
The editing percentage (e.g., the “editing efficiency” or “percent editing” or “indel frequency”) is defined as the total number of sequence reads with insertions/deletions (“indels”) or substitutions over the total number of sequence reads, including wild type. […]

TTR [2] = test: TTR editing dose response (EC50, maximum editing) in primary cyno hepatocytes treated with LNP formulated U-depleted Spy Cas9 mRNA and sgRNAs; format: cell-based, cynomolgus monkey
Protocol: as §1
(§2) For LNPs prepared using the cross-flow technique, the LNPs were formed by impinging jet mixing of the lipid in ethanol with two volumes of RNA solutions and one volume of water. The lipid in ethanol is mixed through a mixing cross with the two volumes of RNA solution. A fourth stream of water is mixed with the outlet stream of the cross through an inline tee. (See WO2016010840 FIG. 2.) The LNPs were held for 1 hour at room temperature, and further diluted with water (approximately 1:1 v/v). Diluted LNPs were concentrated using tangential flow filtration on a flat sheet cartridge (Sartorius, 100 kD MWCO) and then buffer exchanged by diafiltration into 50 mM Tris, 45 mM NaCl, 5% (w/v) sucrose, pH 7.5 (TSS). Alternatively, the final buffer exchange into TSS was completed with PD-10 desalting columns (GE). If required, formulations were concentrated by centrifugation with Amicon 100 kDa centrifugal filters (Millipore). The resulting mixture was then filtered using a 0.2 μm sterile filter. The final LNP was stored at 4° C. or −80° C. until further use.
(§3) Additional PCR was performed per the manufacturer's protocols (Illumina) to add chemistry for sequencing. The amplicons were sequenced on an Illumina MiSeq instrument. The reads were aligned to a reference genome (e.g., the human reference genome (hg38), the cynomologus reference genome (mf5), the rat reference genome (rn6), or the mouse reference genome (mm10)) after eliminating those having low quality scores. The resulting files containing the reads were mapped to the reference genome (BAM files), where reads that overlapped the target region of interest were selected and the number of wild type reads versus the number of reads which contain an insertion, substitution, or deletion was calculated.
(§4) The editing percentage (e.g., the “editing efficiency” or “percent editing” or “indel frequency”) is defined as the total number of sequence reads with insertions/deletions (“indels”) or substitutions over the total number of sequence reads, including wild type.
(§5) Lipid nanoparticle formulations of modified sgRNAs targeting human TTR and the cyno matched sgRNA sequences were tested on primary human hepatocytes and primary cyno hepatocytes in a dose response curve. Primary human and cyno hepatocytes were plated as described in Example 1. Both cell lines were incubated at 37° C., 5% CO2 for 24 hours prior to treatment with LNPs. The LNPs used in the experiments detailed in Tables 20-22 were prepared using the cross-flow procedure described above but purified using PD-10 columns (GE Healthcare Life Sciences) and concentrated using Amicon centrifugal filter units (Millipore Sigma), each containing the specified sgRNA and Cas9 mRNA (SEQ ID NO:1). […] LNPs were incubated in hepatocyte maintenance media containing 6% cyno serum at 37° C., 5% CO2 for 5 minutes. […]

TTR [3] = test: TTR editing dose response (EC50, maximum editing) in primary human hepatocytes treated with LNP formulated U-depleted Spy Cas9 mRNA and sgRNAs; format: cell-based
Protocol: as §1, §2, §3, §4, §5

TTR mRNA = TTR mRNA knockdown (quantitative PCR) in primary human hepatocytes treated with LNPs; format: cell-based; settings: PHH; LNP dose 300 ng mRNA cargo; gRNA:mRNA 1:2; 96 h; biological triplicates; vs untreated control
Protocol: In one experiment, PHH were cultured and treated with LNPs comprising Cas9 mRNA (SEQ ID NO:1) and a gRNA of interest (See FIG. 29, Table 36), as described in Example 4. The LNPs were prepared using the cross-flow procedure described above and purified and concentrated using PD-10 columns and Amicon centrifugal filter units, respectively. The LNPs were formulated with an N:P ratio of 6.0 and contained Lipid A, Cholesterol, DSPC, and PEG2k-DMG in a 50:38:9:2 molar ratio, respectively. The LNPs comprised a gRNA:mRNA ratio of 1:2, and the cells were treated at a dose of 300 ng (with respect to the amount of mRNA cargo delivered).
(§6) Ninety-six (96) hours following LNP treatment (with biological triplicates for each condition), mRNA was purified from PHH cells using the Dynabeads mRNA DIRECT Kit (ThermoFisher Scientific) according to the manufacturer's protocol. Reverse Transcription (RT) was performed with Maxima reverse transcriptase (ThermoFisher Scientific) and a poly-dT primer. The resulting cDNA was purified with Ampure XP Beads (Agencourt). For Quantitative PCR, 2% of the purified cDNA was amplified with Taqman Fast Advanced Mastermix and 3 Taqman probe sets, TTR (Assay ID: Hs00174914_m1), GAPDH (Assay ID: Hs02786624_g1), and PPIB (Assay ID: Hs00168719_m1). The assays were run on the QuantStudio 7 Flex Real Time PCR System according to the manufacturer's instructions (Life Technologies). Relative expression of TTR mRNA was calculated by normalizing to the endogenous controls (GAPDH and PPIB) individually, and then averaged.
The groups in FIG. 29 and Table 36 are identified by the gRNA ID used in each LNP preparation.
In a separate experiment, TTR mRNA knockdown was evaluated following treatment with LNPs comprising G000480, G000486, and G000502. The LNPs were formulated and PHH were cultured and treated with the LNPs, each as described in the experiment above in this Example with the exception that the cells were treated at a dose of 100 ng (with respect to the amount of mRNA cargo delivered).
as §6, with “(single treatment” for “(with biological triplicates”, “the High Capacity cDNA Reverse Transcription Kit” for “Maxima reverse transcriptase”, “according to the manufacturer's instructions.” for “and a poly-dT primer. The resulting cDNA was purified with Ampure XP Beads (Agencourt).”, “the” for “the purified”
The groups in FIG. 30 and Table 37 are identified by the gRNA ID used in each LNP preparation.

[4] = system: potential off-target genomic sites; test: Off-target analysis by oligo insertion based assay in primary human hepatocytes (sgRNAs); format: cell-based; settings: 100 ng Cas9 mRNA, 25 nM sgRNA, 12.5 nM donor oligo, 48 h
Protocol: Off-target analysis of sgRNAs targeting TTR was performed in primary human hepatocytes (PHH) as described in Example 5, with the following modifications. PHH were plated at a density of 33,000 cells per well on collagen-coated 96-well plates as described in Example 1. Twenty-four hours post plating, cells were washed with media and transfected using Lipofectamine RNAiMAX (ThermoFisher, Cat. 13778150) as described in Example 1. Cells were transfected with a lipoplex containing 100 ng Cas9 mRNA, immediately followed by the addition of another lipoplex containing 25 nM of the sgRNA and 12.5 nM of the donor oligo (0.3 μL/well). Cells were lysed 48 hours post-transfection and gDNA was extracted and analyzed as further described in Example 5. The data is graphically represented in FIG. 20.
Fewer sites were detected in PHH for every guide tested as compared to the HekCas9 cell line, with no unique sites detected in PHH alone.

[5] = LNP formulated U-depleted Spy Cas9 mRNA and cyno specific sgRNAs
[6] = LNP formulated U-depleted Spy Cas9 mRNA and human specific sgRNAs
[7] = LNP with U-depleted Spy Cas9 mRNA and cyno specific sgRNA, 8 point 3-fold dose response starting at 300 ng mRNA, 72 hours

Row | Molecule | 12.5 ng mRNA, 3.9 nM sgRNA, Avg % Edit (TTR [1]) [%] | Max Editing (TTR [2]; [5]) [%] | Max Editing (TTR [2]; [6]) [%] | Max Editing (TTR [3]; [7]) [%] | Avg % Knockdown (TTR mRNA) (TTR mRNA) [%] | # Sites in PHH (off-target integration sites detected) [4] | Max Editing (TTR [3]; LNP formulated U-depleted Spy Cas9 mRNA and human specific sgRNAs, dose response) [%]
1 | B1 | 74.47 |  |  |  |  |  | 
2 | B2 | 61.87 |  |  |  |  |  | 
3 | B3 |  | 99.97 | 13.48 | 13.48 |  |  | 
4 | B4 | 60.13 | 99.18 | 89.49 | 89.49 |  |  | 
5 | B5 |  |  | 97.03 |  | 96.17 | 1 | 71.28
